{"source": "paper PMC3928684", "about": "(Biotechnology and bioengineering, 2009)", "key": {"[1]": {"target": "T1, LovD (simvastatin synthase) (Aspergillus terreus, UniProt Q9Y7D1)", "T1 sequence (Q9Y7D1 1-413)": "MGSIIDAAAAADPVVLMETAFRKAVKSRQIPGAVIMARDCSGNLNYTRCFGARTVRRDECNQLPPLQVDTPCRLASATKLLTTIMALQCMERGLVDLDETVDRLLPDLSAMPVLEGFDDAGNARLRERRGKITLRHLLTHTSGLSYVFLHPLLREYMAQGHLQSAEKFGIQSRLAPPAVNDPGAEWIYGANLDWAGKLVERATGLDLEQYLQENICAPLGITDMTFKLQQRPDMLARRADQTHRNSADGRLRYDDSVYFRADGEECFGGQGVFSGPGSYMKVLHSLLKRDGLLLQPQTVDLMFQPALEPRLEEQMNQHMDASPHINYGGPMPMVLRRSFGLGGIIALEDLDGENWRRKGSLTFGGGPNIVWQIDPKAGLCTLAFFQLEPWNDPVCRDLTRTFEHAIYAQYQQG", "assay": "HPLC at […] nm, conversion of MJSS to simvastatin sodium salt", "type": "biochemical", "conditions": "read-out: Wild Type; MJSS fixed at 2 mM, DMB-S-MMP 0.25-5 mM; 10% DMSO"}, "CCC(C)(C)C(=O)SCCC(=O)OC": {"system": "CCC(C)(C)C(=O)SCCC(=O)OC", "assay": "purified protein", "type": "biochemical, Aspergillus terreus", "conditions": "MJSS fixed at 2 mM, DMB-S-MMP 0.25-5 mM; 10% DMSO"}, "[2]": {"system": "C[C@H]1C=C2C=C[C@H](C)[C@H](CC[C@@H](O)C[C@@H](O)CC(=O)O)[C@H]2[C@@H](O)C1", "assay": "purified protein", "type": "biochemical, Aspergillus terreus", "conditions": "DMB-S-MMP fixed at 2 mM, MJSS 0.25-5 mM; 10% DMSO"}, "purified protein": {"substrate": "C[C@H]1C=C2C=C[C@H](C)[C@H](CC[C@@H](O)C[C@@H](O)CC(=O)O)[C@H]2[C@@H](O)C1", "assay": "purified protein", "type": "biochemical, Aspergillus terreus", "conditions": "DMB-S-MMP fixed at 2 mM, MJSS 0.25-5 mM; 10% DMSO", "remark": "listed apart in the source"}}, "data": [{"molecule": "CCC(C)(C)C(=O)SCCC(=O)OC", "note": "[DMB-S-MMP, α-dimethylbutyryl-S-methyl-3-mercaptopropionate]", "values": [{"measurement": "Km", "setting": "[1]", "value": "670 ± 40", "unit": "µM"}]}, {"molecule": "LovD (simvastatin synthase) (Aspergillus terreus; C60A)", "values": [{"measurement": "Km", "setting": "CCC(C)(C)C(=O)SCCC(=O)OC", "value": "580 ± 30", "unit": "µM"}, {"measurement": "Km", "setting": "[2]", "value": "810 ± 190", "unit": "µM"}, {"measurement": "kcat", "setting": "[2]", "value": "0.01 ± 0.00067", "unit": "s⁻¹"}]}, {"molecule": "LovD (simvastatin synthase) (Aspergillus terreus; C40A/C60N)", "values": [{"measurement": "Km", "setting": "CCC(C)(C)C(=O)SCCC(=O)OC", "value": "610 ± 30", "unit": "µM"}, {"measurement": "Km", "setting": "[2]", "value": "820 ± 100", "unit": "µM"}, {"measurement": "kcat", "setting": "[2]", "value": "0.01 ± 0.00033", "unit": "s⁻¹"}]}, {"molecule": "LovD (simvastatin synthase) (Aspergillus terreus; C40A)", "values": [{"measurement": "Km", "setting": "CCC(C)(C)C(=O)SCCC(=O)OC", "value": "630 ± 60", "unit": "µM"}, {"measurement": "Km", "setting": "[2]", "value": "800 ± 210", "unit": "µM"}, {"measurement": "kcat", "setting": "[2]", "value": "0.0103 ± 0.00083", "unit": "s⁻¹"}]}, {"molecule": "LovD (simvastatin synthase) (Aspergillus terreus) (protein) MGSIIDAAAAADPVVLMETAFRKAVKSRQIPGAVIMARDCSGNLNYTRCFGARTVRRDECNQLPPLQVDTPCRLASATKLLTTIMALQCMERGLVDLDETVDRLLPDLSAMPVLEGFDDAGNARLRERRGKITLRHLLTHTSGLSYVFLHPLLREYMAQGHLQSAEKFGIQSRLAPPAVNDPGAEWIYGANLDWAGKLVERATGLDLEQYLQENICAPLGITDMTFKLQQRPDMLARRADQTHRNSADGRLRYDDSVYFRADGEECFGGQGVFSGPGSYMKVLHSLLKRDGLLLQPQTVDLMFQPALEPRLEEQMNQHMDASPHINYGGPMPMVLRRSFGLGGIIALEDLDGENWRRKGSLTFGGGPNIVWQIDPKAGLCTLAFFQLEPWNDPVCRDLTRTFEHAIYAQYQQG", "values": [{"measurement": "Km", "setting": "purified protein", "value": "780 ± 120", "unit": "µM"}, {"measurement": "kcat", "setting": "purified protein", "value": "0.0103 ± 0.0005", "unit": "s⁻¹"}]}]}
